According to US20250353912A1, “COMPOSITIONS AND METHODS COMPRISING ANTIBODIES THAT BIND TO COVALENT PEPTIDE CONJUGATES” (New York University, priority 2022, published 2025):
Substitutions are numbered along the chain they refer to.

B1: EO_Q16: affinity matured clone of OEA2-5, osimertinib-EGFR on HLA-A*02 (antibody, V domains shown)
VH: EVQLVESGGGLVQPGGSLRLSCAASGFTISSSYIHWVRQAPGKGLEWVAYISPSYGSTSYADSVKGRFTISADTSKNTAYLQMNSLRAEDTAVYYCAREYVTMSIDYWGQGTLVTVSS
VL: DIQMTQSPSSLSASVGDRVTITCRASQSVSSAVAWYQQKPGKAPKLLIYSASSLYSGVPSRFSGSRSGTDFTLTISSLQPEDFATYYCQQYSDWPITFGQGTKVEIKRTV
B2: EO_Q17: affinity matured clone of OEA2-5, osimertinib-EGFR on HLA-A*02 (antibody, V domains shown)
VH: B1 VH with Y100L, T102E, S104T, I105P
VL: B1 VL with D93S

Molecular target: osimertinib-EGFR/HLA-A*02 (Homo sapiens, UniProt P00533)
Assay: Yeast-display binding of affinity matured clones
Settings: for binding to EGFR/HLA-A*02 (no drug-conjugation) / binding to osimertinib-EGFR/HLA-A*02: binding titration, FIG. 39; for inhibition of antigen binding by free drug: osimertinib-EGFR/HLA-A*02 10 nM, free osimertinib 1 μM, FIG. 40
Experimental: FIG. 40. Binding of EO_Q16 and EO_Q17 to osimertinib-EGFR/HLA-A*02 (10 nM) in the absence and presence of free osimertinib (1 μM), showing that antigen binding of these antibodies is not inhibited by the presence of free drug.
The binding partners described above in this Example show higher binding signals to osimertinib-EGFR/HLA-A*02, as tested in the yeast display format and as shown in FIGS. 39 and 40.

Molecule | binding to EGFR/HLA-A*02 (no drug-conjugation) | binding to osimertinib-EGFR/HLA-A*02 | inhibition of antigen binding by free drug
B1 | not to the equivalent antigen without drug conjugation | high affinity | not inhibited
B2 | not to the equivalent antigen without drug conjugation | high affinity | not inhibited
